{
  "source": "the Human Domainome abundance scans (Beltran et al. 2025)",
  "parents": {"B1": {"name": "Intersectin-1, residues 909 to 971; numbered along this chain, Q15811 (parent)", "chain": "QGEKVEGLQAQALYPWRAKKDNHLNFNKNDVITVLEQQDMWWFGEVQGQKGWFPKSYVKLISG"}},
  "note": "± gives the uncertainty stated by the source.",
  "data": [
    {"variants_of": "B1", "assay": "abundance fitness (aPCA) (normalised: wild type 0, dead -1); higher = more abundant; growth selection in yeast, the domain comes from the species named", "conditions": "Homo sapiens", "values": [
      {"variant": "QGEKVEGLQAQALYWWRAKKDNHLNFNKNDVITVLEQQDMWWFGEVQGQKGWFPKSYVKLISG", "abundance fitness": "-0.746 ± 0.23"},
      {"variant": "QGEKVEGLQAQALYPWRAKKDNHLNFNKNDVITVLEQQDMWWFGEVQGQKGWFPKSYVQLISG", "abundance fitness": "-0.109 ± 0.17"},
      {"variant": "QGEKVEGLQAQALYPWRAKKDNHLNFNKNDVITVLEQQDMWWFGEVQGQKGWFPKSYVRLISG", "abundance fitness": "-0.043 ± 0.09"},
      {"variant": "QGEKVEGLQAQALYPWRAKKDNHLNFNKNDVITVLEQQDMWWFGEVQGQKGWFPKSYVKCISG", "abundance fitness": "0.029 ± 0.11"},
      {"variant": "QGEKVEGLQAQALYPWRAKKDNHLNFNKNDVITVLEQQDMWWFGEVQGQKGWFPKSYVKLGSG", "abundance fitness": "-0.207 ± 0.069"},
      {"variant": "QGEKVEGLQAQALYPWRAKKDNHLNFNKNDVITVLEQQDMWWFGEVQGQKGWFPKSYVKLWSG", "abundance fitness": "-0.274 ± 0.12"},
      {"variant": "QGEKVEGLQAQALYPWRAKKDNHLNFNKNDVITVLEQQDMWWFGEVQGQKGWFPKSYVKLDSG", "abundance fitness": "-0.159 ± 0.14"},
      {"variant": "QGEKVEGLQAQALYPWRAKKDNHLNFNKNDVITVLEQQDMRWFGEVQGQKGWFPKSYVKLISG", "abundance fitness": "-0.6 ± 0.092"},
      {"variant": "QGEKVEGLWAQALYPWRAKKDNHLNFNKNDVITVLEQQDMWWFGEVQGQKGWFPKSYVKLISG", "abundance fitness": "-0.109 ± 0.097"},
      {"variant": "QGEKVEGLQAQALYPHRAKKDNHLNFNKNDVITVLEQQDMWWFGEVQGQKGWFPKSYVKLISG", "abundance fitness": "-0.051 ± 0.26"},
      {"variant": "QGEKVEGLQAQALYPLRAKKDNHLNFNKNDVITVLEQQDMWWFGEVQGQKGWFPKSYVKLISG", "abundance fitness": "-0.046 ± 0.089"},
      {"variant": "QGEKVEGLQAQALYPCRAKKDNHLNFNKNDVITVLEQQDMWWFGEVQGQKGWFPKSYVKLISG", "abundance fitness": "-0.157 ± 0.17"},
      {"variant": "QGEKVEGLQAQALYPWRAKKDNHLNCNKNDVITVLEQQDMWWFGEVQGQKGWFPKSYVKLISG", "abundance fitness": "-0.723 ± 0.35"},
      {"variant": "QGEKVEGLQAQALYPWRAKKDNHLNFNKNDVITVLEQQDMWWFGEVQGQKGWFPKSYVKLIGG", "abundance fitness": "-0.129 ± 0.12"},
      {"variant": "QGEKVEGLQAQALYPWRAKKDNHLNFNKNDVITVLEQQDMWWFGEVQGQKGWFPKSFVKLISG", "abundance fitness": "0.279 ± 0.34"},
      {"variant": "QGEKVEGLQAQALYPWRAKKDNHLNFNKYDVITVLEQQDMWWFGEVQGQKGWFPKSYVKLISG", "abundance fitness": "-0.282 ± 0.38"},
      {"variant": "QGEKVEGLQAQALYPWRAKKDNHLNFNKNDVITVLEQQDMWWFGEVQAQKGWFPKSYVKLISG", "abundance fitness": "-0.208 ± 0.11"},
      {"variant": "QGEKVEGLQAQALYPWRAKKDNHLNFNKNDVITVLRQQDMWWFGEVQGQKGWFPKSYVKLISG", "abundance fitness": "-0.147 ± 0.12"},
      {"variant": "QGEKVEGLQAQALYPWRAKKDNHLNFNKNDVITVLYQQDMWWFGEVQGQKGWFPKSYVKLISG", "abundance fitness": "-0.279 ± 0.24"},
      {"variant": "QGEKVEGLQAQALYPWRAKKDNHLNFNKNDVITVLEQQDMWWFGEVQGQKGWFPKSYVKLISR", "abundance fitness": "-0.029 ± 0.086"},
      {"variant": "QGEKVEGLQAQALYPWRAKKDNHLNFNKNDVIAVLEQQDMWWFGEVQGQKGWFPKSYVKLISG", "abundance fitness": "-0.071 ± 0.069"},
      {"variant": "QGEKVEGLQAQALYPWRAKKDNHLNFNKNDVIGVLEQQDMWWFGEVQGQKGWFPKSYVKLISG", "abundance fitness": "-0.196 ± 0.046"},
      {"variant": "QGEKVEGLQAQRLYPWRAKKDNHLNFNKNDVITVLEQQDMWWFGEVQGQKGWFPKSYVKLISG", "abundance fitness": "-0.997 ± 0.21"},
      {"variant": "QGEKVEGLQAGALYPWRAKKDNHLNFNKNDVITVLEQQDMWWFGEVQGQKGWFPKSYVKLISG", "abundance fitness": "-0.498 ± 0.093"},
      {"variant": "QGEKVEGLQAQALYPWRAKKDNHLNFNKNDVITVLEQQDMWWFGEVQGQKVWFPKSYVKLISG", "abundance fitness": "-0.97 ± 0.27"},
      {"variant": "QGEKVEGLQAQALYPWRAKKDNHLNFNDNDVITVLEQQDMWWFGEVQGQKGWFPKSYVKLISG", "abundance fitness": "-0.145 ± 0.46"},
      {"variant": "QGEKVEGLQAQALYPWPAKKDNHLNFNKNDVITVLEQQDMWWFGEVQGQKGWFPKSYVKLISG", "abundance fitness": "-0.293 ± 0.25"},
      {"variant": "QGEKVEGLQAQALYPWMAKKDNHLNFNKNDVITVLEQQDMWWFGEVQGQKGWFPKSYVKLISG", "abundance fitness": "-0.081 ± 0.23"},
      {"variant": "QGEKVEGLQAQALYPWHAKKDNHLNFNKNDVITVLEQQDMWWFGEVQGQKGWFPKSYVKLISG", "abundance fitness": "-0.108 ± 0.28"},
      {"variant": "QGEKVEGLQAQALYPWRATKDNHLNFNKNDVITVLEQQDMWWFGEVQGQKGWFPKSYVKLISG", "abundance fitness": "0.033 ± 0.054"},
      {"variant": "QGEKVEGLQAQALYPWRAPKDNHLNFNKNDVITVLEQQDMWWFGEVQGQKGWFPKSYVKLISG", "abundance fitness": "-0.139 ± 0.076"},
      {"variant": "QNEKVEGLQAQALYPWRAKKDNHLNFNKNDVITVLEQQDMWWFGEVQGQKGWFPKSYVKLISG", "abundance fitness": "-0.175 ± 0.3"},
      {"variant": "QGEKVEGLQAQALYPWRTKKDNHLNFNKNDVITVLEQQDMWWFGEVQGQKGWFPKSYVKLISG", "abundance fitness": "-0.065 ± 0.078"},
      {"variant": "QGEKVEGLQAQALYPWRAKKDNHLNFNKNDVITVLEQQDMWWFGEVQGQKGWFLKSYVKLISG", "abundance fitness": "-0.215 ± 0.11"},
      {"variant": "QGEKVEGLQAQALYPWRAKKDNHLNFNKNDVITVLEQQDMWWFGEVQGNKGWFPKSYVKLISG", "abundance fitness": "-0.403 ± 0.38"},
      {"variant": "QGEKVEGLQAQALYPWRAKKDNHLNFNKNDVMTVLEQQDMWWFGEVQGQKGWFPKSYVKLISG", "abundance fitness": "-0.446 ± 0.12"},
      {"variant": "QGEKVEGLQAQALYPWRAKKDNHLNFNKNDVKTVLEQQDMWWFGEVQGQKGWFPKSYVKLISG", "abundance fitness": "-0.965 ± 0.29"},
      {"variant": "QGEKVEGLQAQALYPWRAKKDNHLNFNKNDVITVLEQQDMWWFGEVQGQKGWFPKIYVKLISG", "abundance fitness": "-0.491 ± 0.26"},
      {"variant": "QGEKVEGLQAQALYPWRAKKDNTLNFNKNDVITVLEQQDMWWFGEVQGQKGWFPKSYVKLISG", "abundance fitness": "-0.207 ± 0.14"},
      {"variant": "QGEKVEGLQAQALYPWRAKKDNHLNFNKNDVITVLEQQDMWWFGEQQGQKGWFPKSYVKLISG", "abundance fitness": "-0.279 ± 0.17"},
      {"variant": "QGEKVEGLQAQALYPWRAKKDNHLNFNKNDVITVLEFQDMWWFGEVQGQKGWFPKSYVKLISG", "abundance fitness": "-0.078 ± 0.46"},
      {"variant": "QGVKVEGLQAQALYPWRAKKDNHLNFNKNDVITVLEQQDMWWFGEVQGQKGWFPKSYVKLISG", "abundance fitness": "-0.293 ± 0.15"},
      {"variant": "QGEKVEGLQAQALYPWRAKKDNHLNFNKNDAITVLEQQDMWWFGEVQGQKGWFPKSYVKLISG", "abundance fitness": "-0.274 ± 0.038"}
    ]}
  ]
}
